Assay results published in US20160024208A1 (Regeneron, published 2016).
Read-outs that look alike come from different tables or passages of the source.

Key:
[1] = target: T1, full-length human Nav1.7 fused at its N-terminus to GFP, expressed in HEK293 cells (human, UniProt Q15858 1-1988); test: flow cytometry on Nav1.7-GFP-HEK293, antibody 3.3 nM
T1 construct: Voltage-gated sodium channel alpha subunit; In the Western blot it stood as denatured cell lysate; also called hNav 1.7-GFP-HEK293; Nav 1.7-GFP-HEK293; not shown: green fluorescent protein (GFP) at the N-terminus
Procedure: The specificity of binding of anti-Naᵥ 1.7 human antibodies to full-length Naᵥ 1.7 expressed in HEK293 cells was determined by peptide competition experiments using flow cytometry.
HEK293 cells stably-transfected with full-length Naᵥ 1.7 fused at its N-terminus to GFP (Naᵥ 1.7-GFP-HEK293) were used for this study. Antibody binding to the transfected cells overexpressing Naᵥ 1.7 was compared to binding in the presence of excess peptide and to binding to the parental HEK293 cell line. To perform the binding experiments, adherent cells were collected using 1 mM EDTA in PBS, washed and re-suspended in cold PBS containing 5% FBS. For each binding experiment the anti-Naᵥ 1.7 antibody at a final concentration of 3.3 nM (in PBS/5% FBS) was added to cells either directly or after incubating for 10 min on ice with a 1000-fold molar excess (3.3 uM final concentration in PBS/5% FBS) of synthetic peptide with sequence corresponding to the loop specificity of the antibody. The antibodies designated as H4H391P, H4H443B, H4H448B, and H1M797N were preincubated as described above with a synthetic peptide corresponding to EC loop 3-1 (amino acid residues 269-338 of SEQ ID NO: 670), whereas the antibodies designated as H4H468P and H1 M852N were preincubated with a synthetic peptide corresponding to EC loop 3-3 (amino acid residues 1333-1382 of SEQ ID NO: 670). The antibody or antibody-peptide mixture was then allowed to incubate with cells for 20 min on ice, followed by addition of 500 uL of cold PBS/5% FBS. Cells were collected by centrifugation, resuspended in 500 uL of cold PBS/5% FBS, and then secondary antibody matched to the antibody isotype (either anti-human-Fc conjugated to Cyanine 5 or anti-mouse-Fc conjugated to allophyococyanin) was added. Binding was detected on the flow cytometry instrument and analyzed as percent binding using the instrument software. For FACS analysis appropriate gating was applied so that only healthy, live cells were counted. Background staining of secondary antibodies alone to Naᵥ 1.7-GFP-HEK293 cells was tested and recorded for all samples, and results ranged between 1-2% binding.

[2] = target: T2, mouse Nav 1.7 in DRG neurons of wild type (Scn9a +/+) mice (mouse, UniProt Q62205 1-1984); test: immunocytochemistry on cultured DRG neurons, antibody 66 nM
T2 construct: whole, on cells
Procedure: Briefly, lumbar DRGs were harvested from Scn9a^{hu/+}, Scn9a^{hu3-1/hu3-1} and Scn9a^{+/+} mice. After dissociation, cells were plated at a density of 5.5×10⁴ cells/well on 96 well plates treated with poly-DL-ornithine (0.1 mg/ml) and laminin (5 μg/ml) followed by incubation at 37° C. in 96.5% air and 3.5% CO₂. Neurons were maintained in culture in DMEM supplemented with 50 ng/ml nerve growth factor, 100 U/ml penicillin/streptomycin, MEM vitamins, and 10% heat-inactivated fetal calf serum.
After 3 to 8 days in culture, neurons were fixed in 4% PFA and 4% sucrose in PBS for 30 minutes, and permeabilized in 10% NGS and 0.1% Triton X-100. Neurons were then incubated overnight at 4° C. with anti-Naᵥ 1.7 antibodies at 66 nM (1 μg). The next day, neurons were incubated in 1:400 dilution of anti-human Alexa Fluor® 594 (Invitrogen) conjugated secondary antibody for 1 h at RT. Images were taken using a fluorescent microscope.

[3] = target: T3, Native Nav1.7 (3-3) peptide, human (human); test: Biacore (second token of ELISA/Biacore summary)
T3 construct: Synthetic peptide, unbiotinylated; also called Human Nav1.7 3-3 native; Nav1.7 3-3 native peptide
T3 peptide: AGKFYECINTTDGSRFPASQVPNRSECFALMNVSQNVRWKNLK

[4] = target: T4, N-Term Biotin-Nav1.7 (3-3) peptide, human (same sequence of EC3-3 for mulatta) (human (same sequence of EC3-3 for …, not fully specified; N-terminal biotin attached via a G4S linker); test: ELISA on coated peptide, antibody 1 ug/ml, OD450 grade; Monkey column
T4 construct: ELISA peptide
T4 peptide: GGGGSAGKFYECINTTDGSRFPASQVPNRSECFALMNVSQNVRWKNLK
Procedure: Anti-Naᵥ 1.7 antibodies were tested for their ability to bind to the Naᵥ 1.7 peptides. The various peptides were coated overnight onto 96-well Nunc Immunosorp plates at a concentration of 4 μg/mL in PBS, followed by blocking for 1 hour in a suitable blocking agent. For biotinylated peptides, avidin was first coated on Nunc Immunosorp plates at 2 μg/mL in PBS overnight, followed by blocking as described, and the plate was then coated with biotinylated peptides at a concentration of 0.4 μg/mL and incubated for 1 hour at room temperature. Purified anti-Naᵥ 1.7 antibodies were diluted to a final concentration of 0.1 μg/mL and 1.0 μg/mL and added to the wells of the coated microtiter plates followed by incubation for 1 hour at room temperature. Bound antibodies were detected with horseradish peroxidase (HRP) conjugated anti-mouse or anti-human IgG (Jackson Immuno Research Lab, West Grove, Pa.) depending on the antibody species and developed by colorimetric response using tetramethylbenzidine (TMB) substrate (BD Biosciences). Absorbance was read at OD₄₅₀ on a plate reader for 0.1 second.
Values in Table 11 represent absolute binding ranges (at OD450) to plate-coated peptides for antibodies added at 1 μg/ml as follows: OD450<0.2: −; 0.2<OD450<1: +; 1<OD450<2: ++; 2<OD450<4: +++; NT: Not Tested.

[5] = target: T3, Native Nav1.7 (3-3) peptide, human; test: Biacore (second token of ELISA/Biacore summary)
[6] = target: T5, Native Nav1.7 (3-1) peptide, rat (rat); test: ELISA on coated peptide
T5 construct: Synthetic peptide; also called Rat Nav1.7 3-1 native
T5 peptide: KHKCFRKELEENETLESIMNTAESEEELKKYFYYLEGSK
Outline: (§1)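 Peptides coated at 4 μg/mL in PBS, or biotinylated peptides captured at 0.4 μg/mL on avidin (2 μg/mL). Antibodies at 0.1 and 1.0 μg/mL, 1 h at room temperature, detected with HRP anti-mouse or anti-human IgG and TMB at OD450. Scores at 1 μg/ml: <0.2 −; 0.2–1 +; 1–2 ++; 2–4 +++.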

[7] = target: T6, N-Term Biotin Nav1.7 (3-1) peptide, mouse (mouse, not fully specified; N-terminal biotin attached via a G4S linker); test: ELISA on coated peptide
T6 construct: Synthetic peptide; also called Mouse Nav1.7 3-1 N-term biotin
T6 peptide: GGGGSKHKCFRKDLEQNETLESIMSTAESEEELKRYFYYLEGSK
Outline: as §1

T2 sequence (Q62205 whole entry): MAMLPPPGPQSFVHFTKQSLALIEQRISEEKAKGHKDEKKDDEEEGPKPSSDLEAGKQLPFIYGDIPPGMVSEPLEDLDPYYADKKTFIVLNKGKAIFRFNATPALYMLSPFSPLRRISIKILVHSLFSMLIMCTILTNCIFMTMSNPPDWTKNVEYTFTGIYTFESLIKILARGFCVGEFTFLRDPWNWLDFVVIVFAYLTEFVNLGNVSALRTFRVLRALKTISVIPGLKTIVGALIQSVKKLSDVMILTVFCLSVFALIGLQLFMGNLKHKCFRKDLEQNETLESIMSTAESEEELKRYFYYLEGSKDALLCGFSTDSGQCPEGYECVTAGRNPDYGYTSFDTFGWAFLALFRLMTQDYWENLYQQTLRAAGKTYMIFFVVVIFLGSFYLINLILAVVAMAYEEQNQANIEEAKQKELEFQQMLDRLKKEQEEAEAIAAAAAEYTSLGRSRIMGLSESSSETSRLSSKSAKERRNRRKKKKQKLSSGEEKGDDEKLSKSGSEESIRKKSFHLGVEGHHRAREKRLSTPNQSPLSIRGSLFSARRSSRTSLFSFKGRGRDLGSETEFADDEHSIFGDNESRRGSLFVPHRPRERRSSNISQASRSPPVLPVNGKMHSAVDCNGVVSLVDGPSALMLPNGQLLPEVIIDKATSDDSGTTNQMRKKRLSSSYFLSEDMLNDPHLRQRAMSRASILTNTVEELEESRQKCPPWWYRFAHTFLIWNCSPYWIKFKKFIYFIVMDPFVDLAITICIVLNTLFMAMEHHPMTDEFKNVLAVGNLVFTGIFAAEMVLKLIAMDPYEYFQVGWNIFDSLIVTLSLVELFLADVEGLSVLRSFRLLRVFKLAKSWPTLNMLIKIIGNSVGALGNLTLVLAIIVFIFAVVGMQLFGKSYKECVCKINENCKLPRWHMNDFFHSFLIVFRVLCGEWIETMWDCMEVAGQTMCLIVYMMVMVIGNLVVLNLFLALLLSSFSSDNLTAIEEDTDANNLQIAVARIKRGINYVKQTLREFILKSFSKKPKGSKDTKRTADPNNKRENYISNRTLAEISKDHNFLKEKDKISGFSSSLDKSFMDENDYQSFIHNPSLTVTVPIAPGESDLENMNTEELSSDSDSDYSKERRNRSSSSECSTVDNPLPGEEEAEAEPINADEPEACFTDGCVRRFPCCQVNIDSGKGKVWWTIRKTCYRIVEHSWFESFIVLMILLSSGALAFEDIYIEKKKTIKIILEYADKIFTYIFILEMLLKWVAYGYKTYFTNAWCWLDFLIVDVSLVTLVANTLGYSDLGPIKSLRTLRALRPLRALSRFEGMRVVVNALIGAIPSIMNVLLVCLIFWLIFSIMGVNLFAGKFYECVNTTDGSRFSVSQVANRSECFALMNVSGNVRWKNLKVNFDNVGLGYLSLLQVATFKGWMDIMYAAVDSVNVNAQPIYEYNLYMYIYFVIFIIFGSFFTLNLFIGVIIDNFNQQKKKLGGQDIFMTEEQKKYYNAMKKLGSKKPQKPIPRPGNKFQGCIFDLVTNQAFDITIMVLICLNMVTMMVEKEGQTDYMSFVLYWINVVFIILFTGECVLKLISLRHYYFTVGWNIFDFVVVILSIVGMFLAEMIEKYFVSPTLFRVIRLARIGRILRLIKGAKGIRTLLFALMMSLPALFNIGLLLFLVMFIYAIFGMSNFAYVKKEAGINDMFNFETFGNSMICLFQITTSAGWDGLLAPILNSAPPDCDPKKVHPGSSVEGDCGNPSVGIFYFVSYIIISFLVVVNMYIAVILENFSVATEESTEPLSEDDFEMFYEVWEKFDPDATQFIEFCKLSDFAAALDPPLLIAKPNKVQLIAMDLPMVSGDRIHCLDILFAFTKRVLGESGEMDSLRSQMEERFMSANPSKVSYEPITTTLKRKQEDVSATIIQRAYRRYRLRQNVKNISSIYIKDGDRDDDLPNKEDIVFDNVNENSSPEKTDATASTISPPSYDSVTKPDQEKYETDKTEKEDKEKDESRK

B1: H1M797N (antibody, V domains shown)
VH: QVQLVESGGGVVQPGRSLRLSCAASGFTFSSYGMHWVRQAPGKGLEWVAVISYDGNNKHFADSVKGRFTISRDNSKNTLNLQMNSLRAEDRAVYYCARGASGFVLDIWGQGTMVTVSS
VL: DIVMTQTPLSSPVTLGQPASISCRSSQSLVRSDGNTYLSWLQQRPGQPPRLLIYKISNRFSGVPDRFSGSGAGTDFTLKISRVEAEDVGIYFCMQTTQFPFTFGPGTKVDIK
Question: B1 was tested. Which “% Binding Nav1.7 (Stable Line)” value [1] did it give?
Answer: Its value is 45.4%.

B2: H1H1006B (antibody, V domains shown)
VH: EVQLVESGPGLVKSSETLSLKCTVSGGSISSSGYYWGWIRQPPGKGLEWIGSIHRSGSTFYNPSLKSRVTISVDTSKSQFSLRLTSVTAADTSVYFCGRHGRDYYYGMDVWGQGTTVTVSS
VL: DIQMTQSPSSVSASVGDRVTITCRSSQDINNWLVWYQQKPGKAPKVLIYGASRLQSGVPSRFSGSGSGTDFTLTISSLQPEDFATYYCQQANSFPLTFGGGTKVEIKR
notes: Fully human antibody; also called H4H1006B-1
Question: Does B2 bind [2]?
Answer: Result: binds

B3: H1M852N (antibody, V domains shown)
VH: QVQLVESGGGVVQPGRSLTLSCAASGFMFNRFGMHWVRQAPGKGLDWVAVIWYDGSNKYYADSVKGRFTISRDNSKNTLYLQVNSLRAEDTAVYYCAREGTPHYYDSSGLDYWGQGTLVTVSS
VL: AIQMTQSPSSLSAYVGDRVTITCRASQDIRNDLGWYQQKPGKAPNLLIYDISSLQSGVPSRFSGSGSGTDFTLTISSLQPEDFATYYCLQDYNYPLTFGGGTKVEIK
notes: constant region may differ; also called H4H852N
Question: Which results are given for B3?
Answer: Kd [3]: > 200 nM; % Binding Nav1.7 (Stable Line) [1]: 64.1%; OD450 [4]: 1 to 2 od; Kd [5]: > 200 nM

B4: H1M801N (antibody, V domains shown)
VH: QVQVVESGGGVVQPGRSLRLSCAASGFTFSNYGMHWVRQAPGKGLEWVTVISYDGSNKNYADSVKGRFTISRDNSKNTLYLQMNSLRAEDTAMYYCARGGSGFAFDIWGQGTMVTVSS
VL: DIVMTQTPLSSPVTLGQPASISCRSSQSLVRSDGNTYLSWLQQRPGQPPRLLIYKISNRFSGVPDRFSGSGAGTDFTLKISRVEADDVGVYYCMQTTQFPFTFGPGTKVDIK
notes: also called H1H801N
Question: Which “% Binding Nav1.7 (Stable Line)” value [1] does the source give for B4 here?
Answer: The value was 49.5%.

B5: H1M836N (antibody, V domains shown)
VH: QVQLVESGGGVVQPGRSLRLSCAASGFTFSSYGMHWVRQAPGKGLEWVAVISYDGNNKYYADSVKGRFTISRDNSKNTLYLQMNSLRAEDTAVYYCAKGSAGYALDYWGQGTLVTVSS
VL: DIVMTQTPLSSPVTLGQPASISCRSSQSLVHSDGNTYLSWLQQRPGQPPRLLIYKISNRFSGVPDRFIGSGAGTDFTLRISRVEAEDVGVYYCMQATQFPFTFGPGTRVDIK
Question: With B5 as the binder, how does the “% Binding Nav1.7 (Stable Line)” value [1] read?
Answer: The value was 68.9%.

B6: H1M879N (antibody, V domains shown)
VH: EVQLVESGGGLVKPGGSLRLSCAASGFTFSSYTIHWVRQAPGKGLEWVSSISSSSSYIYYVDSVKGRFTISRDNAKNSVYLQMNSLRAEDTAVYYCATSSITARGYFDYWGQGTLVTVSS
VL: EIVLTQSPATLSLSPGERVTLSCRASQSVSSYLAWYQQKPGQAPRLLIYDASNRATGIPARFSGSGSGTDFTLTISSLEPEDFAVYYCQQRNIWPPTFGQGTKVEIK
notes: Hybridoma-derived
Question: Which “% Binding Nav1.7 (Stable Line)” value [1] does the source give for B6 here?
Answer: Its value is 63%.

Question: What about the OD450 [6] of the same binder?
Answer: Its OD450 is under 0.2 od.

Question: What about the OD450 [7] of the same binder?
Answer: Its OD450 is under 0.2 od.
